Source: patent US20220306765A1 (SUZHOU TRANSCENTA THERAPEUTICS, published 2022)
Numbering of substitutions follows the chain as printed. Names and notes keep the numbering of the source. Blank lines part the entries; values can stand above or below the binder they belong to.

Assays:
human C1q = human C1q (human, UniProt P02745 23-245; P02746 28-253; P02747 29-245); assay: ELISA: antibody immobilised, human C1q titrated, anti-C1q-HRP; the concentration axis is that of C1q
Procedure: C1q binding assay was taken following method. Two antibodies were immobilized on the plate. […] Then anti-C1q-HRP and TMB were added for detection at OD450 nm.

human FcγRIIIa-V176 [1] = target: T1, human FcγRIIIa-V176 (human, UniProt P08637 17-208); assay: ELISA, antibody coated, His-tagged FcγR in solution
T1 construct: His-tagged (ELISA); whole receptor on Jurkat-NFAT-luc-FcγRIIIA-V176 cells in the ADCC reporter assay; also called hFcγRIIIA (V176)-his
T1 sequence (P08637 17-208 F176V limits assumed): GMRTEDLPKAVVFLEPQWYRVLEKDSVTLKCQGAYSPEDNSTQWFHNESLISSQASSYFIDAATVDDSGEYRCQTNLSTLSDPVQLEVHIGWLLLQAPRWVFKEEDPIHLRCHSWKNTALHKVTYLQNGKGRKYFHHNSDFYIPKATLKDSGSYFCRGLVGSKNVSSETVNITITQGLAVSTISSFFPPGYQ
Procedure: (§1) After blocking and washing, the serial diluted (5 g/ml˜0.02 μg/ml) FcγRs labeled with His-tag were added and incubated for 1 h. Then anti-His-HRP and TMB were added for detection of FcγR binding at OD450 nm.

human FcγRIIIa-F176 = target: T2, human FcγRIIIa-F176 (human, UniProt P08637 17-208); assay: as above
T2 construct: His-tagged (ELISA); also called hFcγRIIIA (F176)-his
T2 sequence (P08637 17-208 limits assumed): as the sequence (P08637 17-208 F176V limits assumed) above, with V160F counted along it
Procedure: as §1

mouse FcγRIIB-his = target: T3, mouse FcγRIIB-his (mouse, UniProt P08101 30-207, limits assumed); assay: ELISA: antibody coated at 1 ug/ml, Mouse FcγRIIB-his titrated, anti-His-HRP; the concentration axis is that of the receptor
T3 sequence (looked up): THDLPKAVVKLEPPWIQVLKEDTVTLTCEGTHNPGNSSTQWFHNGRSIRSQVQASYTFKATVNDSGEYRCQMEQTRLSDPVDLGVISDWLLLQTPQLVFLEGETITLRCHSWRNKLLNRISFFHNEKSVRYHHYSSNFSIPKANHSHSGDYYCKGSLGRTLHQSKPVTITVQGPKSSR
Procedure: as §1

FcγRIV-his = target: T4, FcγRIV-his (Mus musculus (Mouse), UniProt A0A0B4J1G0 21-203); assay: ELISA: antibody coated at 1 ug/ml, Mouse FcγRIV-his titrated, anti-His-HRP; the concentration is that of the receptor
T4 sequence: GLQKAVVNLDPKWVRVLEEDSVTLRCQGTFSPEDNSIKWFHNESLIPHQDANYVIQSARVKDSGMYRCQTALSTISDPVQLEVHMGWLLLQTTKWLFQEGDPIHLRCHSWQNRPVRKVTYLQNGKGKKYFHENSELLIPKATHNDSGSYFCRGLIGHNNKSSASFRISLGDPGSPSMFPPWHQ
Procedure: as §1

Cyno FcγRIII-his = target: T5, Cyno FcγRIII-his (cyno, UniProt Q8SPW2 17-208); assay: ELISA: antibody coated, Cyno FcγRIII-his titrated, anti-His-HRP; the concentration axis is that of the receptor
T5 construct: also called cyno FcγRs
T5 sequence (Q8SPW2 17-208 limits assumed): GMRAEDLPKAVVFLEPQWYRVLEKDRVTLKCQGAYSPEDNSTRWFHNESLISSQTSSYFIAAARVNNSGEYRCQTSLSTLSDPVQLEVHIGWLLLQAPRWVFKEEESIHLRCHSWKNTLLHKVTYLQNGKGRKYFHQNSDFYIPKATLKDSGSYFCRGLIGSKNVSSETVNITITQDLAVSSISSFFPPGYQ
Procedure: as §1

human FcγRIIIa-V176 [2] = target: T1, human FcγRIIIa-V176; assay: ELISA: antibody coated at 1 ug/ml, hFcγRIIIA(V176)-his titrated, anti-His-HRP; the concentration is that of the receptor
Procedure: as §1

[3] = target: T6, Human FcRn (FCGRT&B2M) Protein (human, UniProt P55899 24-297; P61769 21-119); assay: ELISA at pH 6.0: antibody immobilised, biotinylated FcRn titrated, Streptavidin-HRP; the concentration axis is that of FcRn
T6 construct: also called huFcRn-biotin
Procedure: FcRn binding was evaluated by an ELISA method. […] Biotinylated FcRn was serial diluted in a pH6.0 dilution buffer (1 μg/ml˜0.0002 μg/ml) and then added for 1 h incubation. Next, Streptavidin-HRP and TMB were added for detection of binding at OD450 nm.

mouse FcγRI-his = target: T7, mouse FcγRI-his (mouse, UniProt P26151 25-297); assay: ELISA: antibody coated at 1 ug/ml, Mouse FcγRI-his titrated, anti-His-HRP; the concentration axis is that of the receptor
T7 sequence (looked up): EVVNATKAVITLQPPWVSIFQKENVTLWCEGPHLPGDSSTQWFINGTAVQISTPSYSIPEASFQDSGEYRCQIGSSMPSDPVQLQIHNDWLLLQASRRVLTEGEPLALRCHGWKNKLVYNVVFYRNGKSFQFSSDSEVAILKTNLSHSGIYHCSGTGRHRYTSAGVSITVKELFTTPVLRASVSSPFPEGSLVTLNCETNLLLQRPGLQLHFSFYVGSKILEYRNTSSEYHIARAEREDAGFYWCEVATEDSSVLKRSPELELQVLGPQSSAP
Procedure: as §1

human FcγRI = target: T8, human FcγRI (human, UniProt P12314 16-288); assay: ELISA: antibody coated at 1 ug/ml, hFcγRI-his titrated, anti-His-HRP; the concentration axis is that of the receptor
T8 construct: also called hFcγRI-his
T8 sequence (P12314 16-288 limits assumed): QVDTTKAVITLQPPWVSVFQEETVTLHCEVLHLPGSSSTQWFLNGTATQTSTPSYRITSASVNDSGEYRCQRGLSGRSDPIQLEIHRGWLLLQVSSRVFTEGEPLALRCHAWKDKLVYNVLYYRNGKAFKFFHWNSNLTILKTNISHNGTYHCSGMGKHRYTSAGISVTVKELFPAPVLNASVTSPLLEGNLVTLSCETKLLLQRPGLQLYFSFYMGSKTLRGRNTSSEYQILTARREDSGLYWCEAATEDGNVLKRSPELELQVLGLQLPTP
Procedure: as §1

human FcγRIIIa-V176 [4] = target: T1, human FcγRIIIa-V176; assay: cell-based or functional assay
human CLDN18.2 [5] = target: T9, human CLDN18.2 (human); assay: flow cytometry on HEK293-CLDN18.2 cells; unit taken from the concentration axis
T9 construct: also called hCLDN18.2; Claudin-18 splice variant 2
Procedure: (§2) Log-phase HEK293-CLDN18.2 and NUGC4 cells were re-suspended in PBS. After 3× cell wash by using FACS washing buffer (PBS+2% FBS), 100 μl/well diluted hybridoma Abs with a range from 400 nM to 0.002 nM were added into each well for incubation at 4° C. for 30 min. Again, cells were washed 3 times by using FACS washing buffer and then incubated with 100 μl/well goat anti-mIgG-FITC (1:400 dilution) at 4° C. for another 30 min. After a final 3× wash using FACS washing buffer, cells were analyzed by flow Cytometry.

human CLDN18.1 = target: T10, human CLDN18.1 (human, UniProt P56856 1-261); assay: flow cytometry on HEK293-CLDN18.1 cells, one antibody concentration
T10 construct: on HEK293-CLDN18.1 cells; also called Claudin-18 splice variant 1; NP_057453.1
T10 sequence (P56856 whole entry, canonical isoform): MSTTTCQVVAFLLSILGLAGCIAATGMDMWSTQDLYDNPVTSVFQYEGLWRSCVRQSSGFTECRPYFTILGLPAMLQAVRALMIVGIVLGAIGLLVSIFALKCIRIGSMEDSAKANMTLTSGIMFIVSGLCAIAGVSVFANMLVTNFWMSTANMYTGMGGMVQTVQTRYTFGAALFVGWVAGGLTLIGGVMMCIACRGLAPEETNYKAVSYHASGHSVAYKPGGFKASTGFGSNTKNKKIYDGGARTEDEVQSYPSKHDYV

human CLDN18.2 [6] = target: T9, human CLDN18.2; assay: FACS, MKN45-CLDN18.2-high cells
Procedure: as §2

human CLDN18.2 [7] = target: T9, human CLDN18.2; assay: flow cytometry on MKN45-CLDN18.2-high cells; unit taken from the concentration axis
Procedure: as §2

human CLDN18.2-mRFP Q47E = human CLDN18.2-mRFP Q47E (human); assay: FACS, transfected HEK293, 10 µg/ml antibody;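 further: antibody binding read by flow cytometry with a FITC-labelled anti-human IgG secondary, gated on RFP-positive cells, each mutant signal expressed against wild-type CLDN18.2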
human CLDN18.2-mRFP Q47E (human), sequence (chain, as listed by the source Q47E Q47E limits assumed): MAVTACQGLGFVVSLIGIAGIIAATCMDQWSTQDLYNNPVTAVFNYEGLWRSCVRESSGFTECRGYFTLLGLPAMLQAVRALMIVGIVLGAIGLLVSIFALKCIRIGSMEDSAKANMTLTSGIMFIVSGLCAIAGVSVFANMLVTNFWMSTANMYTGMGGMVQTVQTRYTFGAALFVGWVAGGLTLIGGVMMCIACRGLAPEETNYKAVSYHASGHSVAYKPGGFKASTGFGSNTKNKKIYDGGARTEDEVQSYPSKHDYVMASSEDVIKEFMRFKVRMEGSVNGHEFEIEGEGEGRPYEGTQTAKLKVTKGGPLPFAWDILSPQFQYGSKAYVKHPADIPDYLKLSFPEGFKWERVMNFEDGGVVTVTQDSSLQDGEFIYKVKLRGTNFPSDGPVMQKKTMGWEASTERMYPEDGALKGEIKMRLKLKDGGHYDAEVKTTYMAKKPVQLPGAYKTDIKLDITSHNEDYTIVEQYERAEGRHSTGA
Procedure: (§3) The transfected HEK293-CLDN18.2 or HEK293-CLDN18.1 cell were resuspended in PBS with 2% BSA at density of 10\hat{ }5/well, 100 μl/well. […] Next, cells were washed 3 times by FACS washing buffer and incubated with 100 μl/well goat anti-hIgG (H+L)-FITC (1:200 dilution) at 4° C. for another 30 min. Finally, cells were washed 3 times by FACS washing buffer and analyzed by Flow Cytometry. To analyze binding to CLDN18.2 transfected cells, the RFP positive cells were used for control gating.

human CLDN18.2-mRFP E56Q = human CLDN18.2-mRFP E56Q (human); assay: FACS, transfected HEK293, 10 µg/ml antibody;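 further: antibody binding read by flow cytometry with a FITC-labelled anti-human IgG secondary, gated on RFP-positive cells, each mutant signal expressed against wild-type CLDN18.2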
human CLDN18.2-mRFP E56Q (human), sequence (chain, as listed by the source E56Q E56Q limits assumed): as the sequence (chain, as listed by the source Q47E Q47E limits assumed) above, with E47Q, E56Q counted along it
Procedure: as §3

human CLDN18.2-mRFP G65P = human CLDN18.2-mRFP G65P (human); assay: FACS, transfected HEK293, 10 µg/ml antibody;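 further: antibody binding read by flow cytometry with a FITC-labelled anti-human IgG secondary, gated on RFP-positive cells, each mutant signal expressed against wild-type CLDN18.2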
human CLDN18.2-mRFP G65P (human), sequence (chain, as listed by the source G65P G65P limits assumed): as the sequence (chain, as listed by the source Q47E Q47E limits assumed) above, with E47Q, G65P counted along it
Procedure: as §3

[8] = target: T11, human CLDN18.2-mRFP1, wild-type (human); assay: FACS, transfected HEK293, 10 µg/ml antibody;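 further: antibody binding read by flow cytometry with a FITC-labelled anti-human IgG secondary, gated on RFP-positive cells, each mutant signal expressed against wild-type CLDN18.2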
T11 construct: human CLDN18.2 (amino acid 1-261) fused to mRFP1 (amino acid 1-225), transiently expressed in HEK293 cells; also called wild-type human CLDN18.2-mRFP
Procedure: as §3

human CLDN18.2-mRFP N37D = human CLDN18.2-mRFP N37D (human); assay: FACS, transfected HEK293, 10 µg/ml antibody
human CLDN18.2-mRFP N37D (human), sequence (chain, as listed by the source N37D N37D limits assumed): as the sequence (chain, as listed by the source Q47E Q47E limits assumed) above, with N37D, E47Q counted along it
Procedure: as §3

human CLDN18.2-mRFP A42S = human CLDN18.2-mRFP A42S (human); assay: FACS, transfected HEK293, 10 µg/ml antibody
human CLDN18.2-mRFP A42S (human), sequence (chain, as listed by the source A42S A42S limits assumed): as the sequence (chain, as listed by the source Q47E Q47E limits assumed) above, with A42S, E47Q counted along it
Procedure: as §3

human CLDN18.2-mRFP Q29M = human CLDN18.2-mRFP Q29M (human); assay: FACS, transfected HEK293, 10 µg/ml antibody
human CLDN18.2-mRFP Q29M (human), sequence (chain, as listed by the source Q29M Q29M limits assumed): as the sequence (chain, as listed by the source Q47E Q47E limits assumed) above, with Q29M, E47Q counted along it
Procedure: as §3

human CLDN18.2-mRFP N45Q = human CLDN18.2-mRFP N45Q (human); assay: FACS, transfected HEK293, 10 µg/ml antibody
human CLDN18.2-mRFP N45Q (human), sequence (chain, as listed by the source N45Q N45Q limits assumed): as the sequence (chain, as listed by the source Q47E Q47E limits assumed) above, with N45Q, E47Q counted along it
Procedure: as §3

human CLDN18.2-mRFP L69I = human CLDN18.2-mRFP L69I (human); assay: FACS, transfected HEK293, 10 µg/ml antibody
human CLDN18.2-mRFP L69I (human), sequence (chain, as listed by the source L69I L69I limits assumed): as the sequence (chain, as listed by the source Q47E Q47E limits assumed) above, with E47Q, L69I counted along it
Procedure: as §3

human CLDN18.2 [9] = target: T9, human CLDN18.2; assay: FACS, NUGC4 cells
human CLDN18.2 [10] = target: T9, human CLDN18.2; assay: FACS, HEK293-CLDN18.2 cells
human CLDN18.2 [11] = target: T9, human CLDN18.2; assay: cell-based or functional assay
human CLDN18.2 [12] = target: T9, human CLDN18.2; assay: flow cytometry on KATOIII cells; unit taken from the concentration axis; the fitted value lies far above the highest concentration tested (about 30 ug/ml); the curve rises only from about 2 ug/ml on, to Mean FITC-A about 43000
human CLDN18.2 [13] = target: T9, human CLDN18.2; assay: flow cytometry on SNU-601 cells; unit taken from the concentration axis; the fitted value lies far above the highest concentration tested (about 30 ug/ml); the curve rises only from about 2 ug/ml on, to Mean FITC-A about 35000
human CLDN18.2 [14] = target: T9, human CLDN18.2; assay: flow cytometry on BxPC-3-CLDN18.2 cells (y axis printed as Luminescence); unit taken from the concentration axis
human CLDN18.2 [15] = target: T9, human CLDN18.2; assay: flow cytometry on MKN45-CLDN18.2-medium cells; unit taken from the concentration axis; the fitted value lies far above the highest concentration tested (about 60 ug/ml); the curve lies on the isotype control up to about 7 ug/ml and reaches Mean FITC about 4200 at about 60 ug/ml
Procedure: as §2

human CLDN18.2 [16] = target: T9, human CLDN18.2; assay: FACS, HEK293-CLDN18.2 cells; binds: FACS on overexpressing HEK293-CLDN18.2 cells
human CLDN18.2 [17] = target: T9, human CLDN18.2; assay: KinExA, NUGC4 cells; binds: Kd on NUGC4 gastric cells (endogenous CLDN18.2), affinity assay, not FACS EC50
human CLDN18.2 [18] = target: T9, human CLDN18.2; assay: flow cytometry on MIA PaCa-2-CLDN18.2 cells (y axis printed as Luminescence); unit taken from the concentration axis

human C1q, sequence (P02745 23-245, chain 1 of 3): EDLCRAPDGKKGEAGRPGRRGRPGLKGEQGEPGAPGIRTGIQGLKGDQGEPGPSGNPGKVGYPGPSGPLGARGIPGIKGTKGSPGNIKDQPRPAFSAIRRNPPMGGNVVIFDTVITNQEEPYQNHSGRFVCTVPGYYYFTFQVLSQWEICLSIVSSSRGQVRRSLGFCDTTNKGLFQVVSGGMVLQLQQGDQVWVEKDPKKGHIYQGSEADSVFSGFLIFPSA
human C1q, sequence (P02746 28-253, chain 2 of 3): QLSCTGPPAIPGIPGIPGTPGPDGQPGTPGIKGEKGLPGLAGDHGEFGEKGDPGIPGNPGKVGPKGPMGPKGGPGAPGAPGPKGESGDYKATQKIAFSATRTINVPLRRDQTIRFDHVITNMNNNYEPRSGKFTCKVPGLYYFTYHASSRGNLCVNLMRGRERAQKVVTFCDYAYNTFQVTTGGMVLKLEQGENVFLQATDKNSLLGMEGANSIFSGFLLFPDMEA
human C1q, sequence (P02747 29-245, chain 3 of 3): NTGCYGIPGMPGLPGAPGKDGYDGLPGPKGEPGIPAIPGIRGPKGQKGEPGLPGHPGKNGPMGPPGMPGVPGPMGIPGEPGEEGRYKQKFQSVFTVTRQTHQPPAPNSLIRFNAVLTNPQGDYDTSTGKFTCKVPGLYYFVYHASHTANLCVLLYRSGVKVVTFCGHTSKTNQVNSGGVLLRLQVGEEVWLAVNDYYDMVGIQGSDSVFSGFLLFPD

- binding result (human C1q): binds
- fold increased binding vs 18B10-HaLa wild-type (human FcγRIIIa-V176 [1]): 10 fold
- fold increased binding vs 18B10-HaLa wild-type (human FcγRIIIa-F176): 10 fold
- binding result (mouse FcγRIIB-his): binds
- EC50 (read off the curve) (FcγRIV-his): ~0.06 µg/mL
- binding result (Cyno FcγRIII-his): binds
- EC50 (read off the curve) (human FcγRIIIa-V176 [2]): ~0.2 µg/mL
- binding result [3]: binds
- binding result (mouse FcγRI-his): binds
- binding result (human FcγRI): binds
- ADCC reporter EC50, NUGC4 targets, Jurkat-NFAT-luc-FcγRIIIA-V176 effectors (human FcγRIIIa-V176 [4]): 0.0097 µg/mL
B1: 18B10-HaLa-L235V/F243L/R292P/Y300L/P396L (antibody, human IgG1, kappa)
heavy: QVQLVQSGAEVKKPGASVKVSCKASGYTFTGYNMNWVRQAPGQGLEWMGNIDPYYGGTSYNQKFKGRVTMTIDKSTSTVYMELSSLRSEDTAVYYCARMYHGNAFDYWGQGTTVTVSSASTKGPSVFPLAPSSKSTSGGTAALGCLVKDYFPEPVTVSWNSGALTSGVHTFPAVLQSSGLYSLSSVVTVPSSSLGTQTYICNVNHKPSNTKVDKKVEPKSCDKTHTCPPCPAPELVGGPSVFLLPPKPKDTLMISRTPEVTCVVVDVSHEDPEVKFNWYVDGVEVHNAKTKPPEEQYNSTLRVVSVLTVLHQDWLNGKEYKCKVSNKALPAPIEKTISKAKGQPREPQVYTLPPSRDELTKNQVSLTCLVKGFYPSDIAVEWESNGQPENNYKTTPLVLDSDGSFFLYSKLTVDKSRWQQGNVFSCSVMHEALHNHYTQKSLSLSPGK
light: not shown
notes: Fc variant of 18B10-HaLa; also called 18B10-HaLa-VLPYLL; copies: 2 + 2

- EC50 (human CLDN18.2 [5]): 1.35 µg/mL
- binding result (human CLDN18.1): no binding (tested: 10 ug/ml)
- fold increase in binding potency vs IMAB362 (human CLDN18.2 [6]): ~2 fold
- EC50 (human CLDN18.2 [7]): 1.87 µg/mL
- binding percentage vs wild-type CLDN18.2 (human CLDN18.2-mRFP Q47E): 109%
- binding percentage vs wild-type CLDN18.2 (human CLDN18.2-mRFP E56Q): 6.57%
- binding percentage vs wild-type CLDN18.2 (human CLDN18.2-mRFP G65P): 118%
- binding percentage vs wild-type CLDN18.2 [8]: 100%
- binding percentage vs wild-type CLDN18.2 (human CLDN18.2-mRFP N37D): 106%
- binding percentage vs wild-type CLDN18.2 (human CLDN18.2-mRFP A42S): 69.2%
- binding percentage vs wild-type CLDN18.2 (human CLDN18.2-mRFP Q29M): 83.5%
- binding percentage vs wild-type CLDN18.2 (human CLDN18.2-mRFP N45Q): 92%
- binding percentage vs wild-type CLDN18.2 (human CLDN18.2-mRFP L69I): 112%
- EC50 (human CLDN18.2 [9]): 7.8 µg/mL
- EC50 (human CLDN18.2 [10]): 0.96 µg/mL
- ADCC reporter assay (Jurkat-NFAT-luc-FcγRIIIA-V176), MKN45-CLDN18.2-medium target cells (human CLDN18.2 [11]): 50 fold
- ADCC reporter assay, NUGC4 target cells (human CLDN18.2 [11]): > 40 fold
B2: 18B10-C (antibody, human IgG1, V domains shown)
VH: EFQLQQSGPELEKPGASVRISCKTSGYSFTGYNMNWVKQSNGESLEWIGNIDPYYGGTSYNQKFKGKATLTVDKSSSTAYMQLKSLTSEDSAVYYCARMYHGNAFDYWGQGTTLTVSS
VL: DIVMTQSPSSLTVTAGEKVTMSCKSSQSLLNSGNLKNYLTWYQQKPGQPPKLLIYWASTRKSGVPDRFTGSGSGTDFTLTLSSVQAEDLAVYYCQNDYSYPLTFGAGTKLELK
notes: also called chimeric 18B10

- EC50 (human CLDN18.2 [12]): 18000 µg/mL
- EC50 (human CLDN18.2 [13]): 15300 µg/mL
- EC50 (human CLDN18.2 [7]): 4.05 µg/mL
- binding percentage vs wild-type CLDN18.2 [8]: 100%
- EC50 (human CLDN18.2 [14]): 2.47 µg/mL
- EC50 (human CLDN18.2 [15]): ~16800 µg/mL
- EC50 (human CLDN18.2 [16]): 0.42 µg/mL
- Kd (human CLDN18.2 [17]): 2.58 nM
- EC50 (human CLDN18.2 [18]): 0.66 µg/mL
- ADCC EC50 (PBMC effectors, PI staining), NUGC4 cells (human CLDN18.2 [11]): 0.54 µg/mL
B3: IMAB362 (antibody, human IgG1, V domains shown)
VH: QVQLQQPGAELVRPGASVKLSCKASGYTFTSYWINWVKQRPGQGLEWIGNIYPSDSYTNYNQKFKDKATLTVDKSSSTAYMQLSSPTSEDSAVYYCTRSWRGNSFDYWGQGTTLTVSS
VL: B2 VL with L35Q, K61E, L81I, L102F, A106S, L112I
notes: chimeric IgG1 benchmark antibody, expressed according to US2009169547A1; also called IMAB362-analog; IMB362
